For test [1], the target named is T1, Human LRRC15 Protein, His Tag, Acro Biosystems (human, UniProt Q8TF66 22-538, limits assumed).
T1 construct: not shown: His tag
T1 sequence (looked up): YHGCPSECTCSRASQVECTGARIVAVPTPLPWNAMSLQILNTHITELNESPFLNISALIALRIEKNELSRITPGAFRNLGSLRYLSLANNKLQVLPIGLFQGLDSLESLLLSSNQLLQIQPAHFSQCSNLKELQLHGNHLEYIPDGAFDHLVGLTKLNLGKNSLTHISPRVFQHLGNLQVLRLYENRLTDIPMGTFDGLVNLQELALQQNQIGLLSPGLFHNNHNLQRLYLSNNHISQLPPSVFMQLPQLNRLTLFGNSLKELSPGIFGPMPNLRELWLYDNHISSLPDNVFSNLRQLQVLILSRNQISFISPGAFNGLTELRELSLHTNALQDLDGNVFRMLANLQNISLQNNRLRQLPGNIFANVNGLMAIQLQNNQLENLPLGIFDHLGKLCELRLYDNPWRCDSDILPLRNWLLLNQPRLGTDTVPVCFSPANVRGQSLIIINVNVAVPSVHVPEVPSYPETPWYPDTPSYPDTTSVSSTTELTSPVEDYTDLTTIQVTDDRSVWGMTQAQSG
As to the kind of experiment: BLI; dissociation pH 7.4 black, pH 5.4 grey [D00022 FIG. 5B]. On the procedure:
The resulting diluted supernatants were then captured on an anti-human Fc sensor (Forte Bio). A baseline was established using 1×PBST (50 mM Potassium Phosphate Buffer+150 mM NaCl+0.05% Tween 20) pH 7.4, and the […] was associated with 50 nM of LRRC15 (Human LRRC15 Protein, His Tag, Acro Biosystems) in 1×PBST pH 7.4 for 120 sec to generate an association curve. In the dissociation phase, the antibody-antigen complex on the sensor was exposed to 1×PBST pH 7.4 or pH 5.4, for 300 sec. Association and dissociation phase curves were examined for the starting ABPC antibody (with no substitutions) and each corresponding antibody variant at pH 5.4 and pH 7.4 to inform on two criteria: a) enhanced dissociation (i.e., higher koff values) at pH 5.4 due to histidine substitution compared to the starting ABPC, (with no substitutions), and b) reduced dissociation at pH 7.4 (i.e., lower koff values) compared to pH 5.4 in the antibody variant itself and with the starting ABPC (with no substitutions).
Briefly, CDRs in the 15G7 light chain were identified using the methods described in Example 9, and for each CDR, residues falling under either or both Kabat and IMGT CDR definitions were called as CDR residues. To generate pH-dependent sequence variants, individual amino acid residues within the light chain CDRs were systematically substituted with a histidine, one at a time (rabbit, MYT6122-6151). Desirable mutations were transferred to a humanized framework MYT8413-8487). After allowing for four days of protein expression, cell culture supernatants were collected, quantified by SDS-PAGE analysis, and the pH dependence of the variant was evaluated using biolayer interferometry (BLI) on an Octet RED 96e instrument (as described in Example 9). […]
(In general: In BLI a coated tip is dipped into the sample, and binding shifts an interference pattern.)

The target of test [2] is T1, Human LRRC15 Protein, His Tag, Acro …. As to the kind of experiment: BLI; dissociation pH 7.4 black, pH 5.4 grey [D00028 FIG. 7B].

Experimental findings from US20250352661A1 (MYTHIC THERAPEUTICS, published 2025) are described below.

B1: MYT9508 (antibody, V domains shown)
VH: EVQLVESGGGLVQPGGSLRLSCTASGFSFSSSHWICWVRQAPGKGLEWVGCIYAGSIGSTYYASWAKGRFTISRDTSKNTVYLQMNSLRAEDTAVYYCARAPNDIYNYYFNLWGQGTLVTVSS
VL: EIVMTQSPSTLSASVGDRVIITCQDSENIYNYLAWYQQKPGKAPKLLIYYASTLASGVPSRFSGSGSGAEFTLTISSLQPDDFATYYCQSGYVSKSSTFGQGTKLTVL
notes: also called hu29F1 VL A25D
Take B1: the binding result in test [1] was “binds”.

B2: MYT9525 (antibody, V domains shown)
VH: EVQLVESGGGLVQPGGSLRLSCTASGFSFSSSHWICWVRQAPGKGLEWVGCIYAGSIGSTYYASWAKGRFTISRDTSKNTVYLQMNSLRAEDTAVYYCARAPNDIYNYYFNLWGQGTLVTVSS
VL: EIVMTQSPSTLSASVGDRVIITCQASENIYNYLAWYQQKPGKAPKLLIYYASTLASGVPSRFSGSGSGAEFTLTISSLQPDDFATYYCDSGYVSKSSTFGQGTKLTVL
notes: also called hu29F1 VL Q89D
As for B2, in test [1], the binding result is recorded as “binds”.

B3: MYT9510 (antibody, V domains shown)
VH: EVQLVESGGGLVQPGGSLRLSCTASGFSFSSSHWICWVRQAPGKGLEWVGCIYAGSIGSTYYASWAKGRFTISRDTSKNTVYLQMNSLRAEDTAVYYCARAPNDIYNYYFNLWGQGTLVTVSS
VL: EIVMTQSPSTLSASVGDRVIITCQASDNIYNYLAWYQQKPGKAPKLLIYYASTLASGVPSRFSGSGSGAEFTLTISSLQPDDFATYYCQSGYVSKSSTFGQGTKLTVL
notes: Humanized 29F1 with VL E27D; captured by anti-human Fc sensor
With B3, in test [1], the binding result is “binds”.

B4: MYT9509 (antibody, V domains shown)
VH: EVQLVESGGGLVQPGGSLRLSCTASGFSFSSSHWICWVRQAPGKGLEWVGCIYAGSIGSTYYASWAKGRFTISRDTSKNTVYLQMNSLRAEDTAVYYCARAPNDIYNYYFNLWGQGTLVTVSS
VL: EIVMTQSPSTLSASVGDRVIITCQADENIYNYLAWYQQKPGKAPKLLIYYASTLASGVPSRFSGSGSGAEFTLTISSLQPDDFATYYCQSGYVSKSSTFGQGTKLTVL
notes: Humanized 29F1 with VL S26D; captured by anti-human Fc sensor
For the molecule B4, the binding result in test [1] was “binds”.

B5: MYT9514 (antibody, V domains shown)
VH: EVQLVESGGGLVQPGGSLRLSCTASGFSFSSSHWICWVRQAPGKGLEWVGCIYAGSIGSTYYASWAKGRFTISRDTSKNTVYLQMNSLRAEDTAVYYCARAPNDIYNYYFNLWGQGTLVTVSS
VL: EIVMTQSPSTLSASVGDRVIITCQASENIYDYLAWYQQKPGKAPKLLIYYASTLASGVPSRFSGSGSGAEFTLTISSLQPDDFATYYCQSGYVSKSSTFGQGTKLTVL
notes: Humanized 29F1 with VL N31D; captured by anti-human Fc sensor
With B5, the binding result in test [1] is “binds”.

B6: MYT9519 (antibody, V domains shown)
VH: EVQLVESGGGLVQPGGSLRLSCTASGFSFSSSHWICWVRQAPGKGLEWVGCIYAGSIGSTYYASWAKGRFTISRDTSKNTVYLQMNSLRAEDTAVYYCARAPNDIYNYYFNLWGQGTLVTVSS
VL: EIVMTQSPSTLSASVGDRVIITCQASENIYNYLAWYQQKPGKAPKLLIYYDSTLASGVPSRFSGSGSGAEFTLTISSLQPDDFATYYCQSGYVSKSSTFGQGTKLTVL
notes: also called hu29F1 VL A51D
On to B6, for which the binding result in test [1] is on record as “binds”.

B7: MYT9524 (antibody, V domains shown)
VH: EVQLVESGGGLVQPGGSLRLSCTASGFSFSSSHWICWVRQAPGKGLEWVGCIYAGSIGSTYYASWAKGRFTISRDTSKNTVYLQMNSLRAEDTAVYYCARAPNDIYNYYFNLWGQGTLVTVSS
VL: EIVMTQSPSTLSASVGDRVIITCQASENIYNYLAWYQQKPGKAPKLLIYYASTLADGVPSRFSGSGSGAEFTLTISSLQPDDFATYYCQSGYVSKSSTFGQGTKLTVL
notes: Humanized 29F1 with VL S56D; captured by anti-human Fc sensor
For the molecule B7, in test [1], the binding result was “binds”.

B8: MYT9520 (antibody, V domains shown)
VH: EVQLVESGGGLVQPGGSLRLSCTASGFSFSSSHWICWVRQAPGKGLEWVGCIYAGSIGSTYYASWAKGRFTISRDTSKNTVYLQMNSLRAEDTAVYYCARAPNDIYNYYFNLWGQGTLVTVSS
VL: EIVMTQSPSTLSASVGDRVIITCQASENIYNYLAWYQQKPGKAPKLLIYYADTLASGVPSRFSGSGSGAEFTLTISSLQPDDFATYYCQSGYVSKSSTFGQGTKLTVL
notes: Humanized 29F1 with VL S52D; captured by anti-human Fc sensor
For B8, the binding result in test [1] is given as “binds”.

B9: MYT9526 (antibody, V domains shown)
VH: EVQLVESGGGLVQPGGSLRLSCTASGFSFSSSHWICWVRQAPGKGLEWVGCIYAGSIGSTYYASWAKGRFTISRDTSKNTVYLQMNSLRAEDTAVYYCARAPNDIYNYYFNLWGQGTLVTVSS
VL: EIVMTQSPSTLSASVGDRVIITCQASENIYNYLAWYQQKPGKAPKLLIYYASTLASGVPSRFSGSGSGAEFTLTISSLQPDDFATYYCQDGYVSKSSTFGQGTKLTVL
notes: also called hu29F1 VL S90D
In the case of B9, the binding result in test [1] is “binds”.

B10: MYT9530 (antibody, V domains shown)
VH: EVQLVESGGGLVQPGGSLRLSCTASGFSFSSSHWICWVRQAPGKGLEWVGCIYAGSIGSTYYASWAKGRFTISRDTSKNTVYLQMNSLRAEDTAVYYCARAPNDIYNYYFNLWGQGTLVTVSS
VL: EIVMTQSPSTLSASVGDRVIITCQASENIYNYLAWYQQKPGKAPKLLIYYASTLASGVPSRFSGSGSGAEFTLTISSLQPDDFATYYCQSGYVDKSSTFGQGTKLTVL
notes: Humanized 29F1 with VL S94D; captured by anti-human Fc sensor
B10: in test [1], the binding result is given as “binds”.

B11: MYT9516 (antibody, V domains shown)
VH: EVQLVESGGGLVQPGGSLRLSCTASGFSFSSSHWICWVRQAPGKGLEWVGCIYAGSIGSTYYASWAKGRFTISRDTSKNTVYLQMNSLRAEDTAVYYCARAPNDIYNYYFNLWGQGTLVTVSS
VL: EIVMTQSPSTLSASVGDRVIITCQASENIYNYDAWYQQKPGKAPKLLIYYASTLASGVPSRFSGSGSGAEFTLTISSLQPDDFATYYCQSGYVSKSSTFGQGTKLTVL
notes: also called hu29F1 VL L33D
Turning to B11, in test [1], the binding result is listed as “binds”.

B12: MYT9522 (antibody, V domains shown)
VH: EVQLVESGGGLVQPGGSLRLSCTASGFSFSSSHWICWVRQAPGKGLEWVGCIYAGSIGSTYYASWAKGRFTISRDTSKNTVYLQMNSLRAEDTAVYYCARAPNDIYNYYFNLWGQGTLVTVSS
VL: EIVMTQSPSTLSASVGDRVIITCQASENIYNYLAWYQQKPGKAPKLLIYYASTDASGVPSRFSGSGSGAEFTLTISSLQPDDFATYYCQSGYVSKSSTFGQGTKLTVL
notes: Humanized 29F1 with VL L54D; captured by anti-human Fc sensor
For the molecule B12, in test [1], the binding result is given as “binds”.

B13: MYT9533 (antibody, V domains shown)
VH: EVQLVESGGGLVQPGGSLRLSCTASGFSFSSSHWICWVRQAPGKGLEWVGCIYAGSIGSTYYASWAKGRFTISRDTSKNTVYLQMNSLRAEDTAVYYCARAPNDIYNYYFNLWGQGTLVTVSS
VL: EIVMTQSPSTLSASVGDRVIITCQASENIYNYLAWYQQKPGKAPKLLIYYASTLASGVPSRFSGSGSGAEFTLTISSLQPDDFATYYCQSGYVSKSDTFGQGTKLTVL
notes: also called hu29F1 VL S97D
B13: the binding result in test [1] is reported as “binds”.

B14: MYT9511 (antibody, V domains shown)
VH: EVQLVESGGGLVQPGGSLRLSCTASGFSFSSSHWICWVRQAPGKGLEWVGCIYAGSIGSTYYASWAKGRFTISRDTSKNTVYLQMNSLRAEDTAVYYCARAPNDIYNYYFNLWGQGTLVTVSS
VL: EIVMTQSPSTLSASVGDRVIITCQASEDIYNYLAWYQQKPGKAPKLLIYYASTLASGVPSRFSGSGSGAEFTLTISSLQPDDFATYYCQSGYVSKSSTFGQGTKLTVL
notes: Humanized 29F1 with VL N28D; captured by anti-human Fc sensor
For the molecule B14, the binding result in test [1] is reported as “binds”.

B15: MYT9754 (antibody, V domains shown)
VH: EVQLVESGGGLVQPGGSLRLSCTASGFSFSSSHWICWVRQAPGKGLEWVGCIYAGSIGSTYYASWAKGRFTISRDTSKNTVYLQMNSLRAEDTAVYYCARAPNDIYNYYFNLWGQGTLVTVSS
VL: EIVMTQSPSTLSASVGDRVIITCQASENIYNYLAWYQQKPGKAPKLLIYYASTLASGVPSRFSGSGSGAEFTLTISSLQPDDFATYYCQSGYVSKSSEFGQGTKLTVL
notes: also called hu29F1 VL T98E
As to B15, in test [2], the binding result was “binds”.

B16: MYT9532 (antibody, V domains shown)
VH: EVQLVESGGGLVQPGGSLRLSCTASGFSFSSSHWICWVRQAPGKGLEWVGCIYAGSIGSTYYASWAKGRFTISRDTSKNTVYLQMNSLRAEDTAVYYCARAPNDIYNYYFNLWGQGTLVTVSS
VL: EIVMTQSPSTLSASVGDRVIITCQASENIYNYLAWYQQKPGKAPKLLIYYASTLASGVPSRFSGSGSGAEFTLTISSLQPDDFATYYCQSGYVSKDSTFGQGTKLTVL
notes: also called hu29F1 VL S96D
B16: the binding result in test [1] is “binds”.
